Experimental data published in patent US20240390423A1 (published 2024).

Experiments:
[1] = molecular target: T1, CTNNB1 wild type (S37) peptide on HLA-A*02:01 (human); experiment: activation reporter or marker
T1 peptide: YLDSGIHSGA

[2] = molecular target: T2, CTNNB1 S37F peptide on HLA-A*02:01 (human); experiment: CD69 by flow cytometry on GFP+ JRT (J.RT3-T3.5) cells transduced with pCDH-CTNNB1; T2 cells pulsed with a 10x dilution series of peptide from 1 µg/ml, 16 h; dose-dependent; full-length, on cells
T2 peptide: YLDSGIHFGA

[3] = molecular target: T2, CTNNB1 S37F peptide on HLA-A*02:01; experiment: CD137 by flow cytometry on GFP+ CD8+ PBMC-derived T cells transduced with pCDH-CTNNB1; T2 cells pulsed with a 10x dilution series of peptide from 1 µg/ml, 24 h; dose-dependent; full-length, on cells
[4] = molecular target: mutated CTNNB1^S37F peptide presented by HLA-A2 on target cells (T2 cells pulsed with the peptide; HUTU80 tumor cells with endogenous CTNNB1^S37F) (human); experiment: cell-based or functional assay

B1: CTNNB1^S37F peptide specific TCR (the inventive TCR) (TCR, V domains shown)
Valpha: AQKVTQAQTEISVVEKEDVTLDCVYETRDTTYYLFWYKQPPSGELVFLIRRNSFDEQNEISGRYSWNFQKSTSSFNFTITASQVVDSAVYFCALSERPGYSTLTFGKGTMLLVSP
Vbeta: DAGVIQSPRHEVTEMGQEVTLRCKPISGHDYLFWYRQTMMRGLELLIYFNNNVPIDDSGMPEDRFSAKMPNASFSTLKIQPSEPRDSAVYFCASGTPSTYEQYFGPGTRLTVT
binding result [1]: no recognition | lowest activating peptide concentration (twofold CD69+ over no peptide) [2]: ~0.5 ng/mL | lowest activating peptide concentration (twofold CD8+CD137+ over no peptide) [3]: 1 ng/mL

B2: inventive TCR specific for the mutated CTNNB1^S37F peptide in the context of HLA-A2, with murine constant regions, expressed from lentiviral vector pCDH-CTNNB1 … (TCR)
TCR alpha: AQKVTQAQTEISVVEKEDVTLDCVYETRDTTYYLFWYKQPPSGELVFLIRRNSFDEQNEISGRYSWNFQKSTSSFNFTITASQVVDSAVYFCALSERPGYSTLTFGKGTMLLVSPDIQNPEPAVYQLKDPRSQDSTLCLFTDFDSQINVPKTMESGTFITDKTVLDMKAMDSKSNGAIAWSNQTSFTCQDIFKETNATYPSSDVPCDATLTEKSFETDMNLNFQNLSVMGLRILLLKVAGFNLLMTLRLWSS
TCR beta: DAGVIQSPRHEVTEMGQEVTLRCKPISGHDYLFWYRQTMMRGLELLIYFNNNVPIDDSGMPEDRFSAKMPNASFSTLKIQPSEPRDSAVYFCASGTPSTYEQYFGPGTRLTVTEDLRNVTPPKVSLFEPSKAEIANKQKATLVCLARGFFPDHVELSWWVNGKEVHSGVSTDPQAYKESNYSYCLSSRLRVSATFWHNPRNHFRCQVQFHGLSEEDKWPEGSPKPVTQNISAEAWGRADCGITSASYQQGVLSATILYEILLGKATLYAVLVSTLVVMAMVKRKNS
percentage of CD8+CD137+ cells in gated GFP+ transduced PBMC T cells after 24 h co-culture with peptide-pulsed T2 cells; lowest peptide concentration giving a twofold increase over no peptide [4]: 1 ng/mL | percentage of CD69+ cells in gated GFP+ JRT cells after 16 h co-culture with peptide-pulsed T2 cells; lowest peptide concentration giving a twofold increase over no peptide [4]: 0.5 ng/mL
